Values quoted from earlier work, collected in article PMC11698047.
Read-outs that look alike come from different tables or passages of the source. Blank lines part the entries; values can stand above or below the substance they belong to.

Key:
R-Ras (Homo sapiens) = R-Ras (Homo sapiens) (UniProt P10301)
M-Ras (Homo sapiens) = M-Ras (Homo sapiens) (UniProt O14807)
H-Ras (Homo sapiens) [1] = target: H-Ras (Homo sapiens) (UniProt P01112)
TC21 (Homo sapiens) = TC21 (Homo sapiens) (UniProt P62070)
Rap1 (Homo sapiens) = Rap1 (Homo sapiens) (UniProt P62834)
Rap2 (Homo sapiens) = Rap2 (Homo sapiens) (UniProt P10114)
Ras (Homo sapiens) [2] = target: Ras (Homo sapiens) (UniProt P01112)
Ras (Homo sapiens) [3] = target: Ras (Homo sapiens) (UniProt P01112); remark: listed apart in the source
H-Ras (Homo sapiens) [4] = target: H-Ras (Homo sapiens) (UniProt P01112); remark: listed apart in the source

Afadin RA1, sequence (P55196 39-133): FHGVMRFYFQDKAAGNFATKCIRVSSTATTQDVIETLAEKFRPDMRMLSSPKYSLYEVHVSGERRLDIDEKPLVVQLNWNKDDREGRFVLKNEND
Afadin RA1 without N-terminal α-helix, sequence (P55196 39-133): as above
Afadin RA2, sequence (P55196 246-348): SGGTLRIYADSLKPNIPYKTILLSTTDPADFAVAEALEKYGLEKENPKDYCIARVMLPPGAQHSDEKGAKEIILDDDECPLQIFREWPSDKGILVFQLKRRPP
Rap1 (Homo sapiens), sequence (P62834 1-181): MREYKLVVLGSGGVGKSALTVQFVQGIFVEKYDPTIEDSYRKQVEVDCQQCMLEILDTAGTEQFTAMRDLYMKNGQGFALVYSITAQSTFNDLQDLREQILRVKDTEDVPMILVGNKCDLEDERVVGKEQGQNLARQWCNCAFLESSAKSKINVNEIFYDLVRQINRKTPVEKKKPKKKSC
R-Ras (Homo sapiens), sequence (P10301 1-215): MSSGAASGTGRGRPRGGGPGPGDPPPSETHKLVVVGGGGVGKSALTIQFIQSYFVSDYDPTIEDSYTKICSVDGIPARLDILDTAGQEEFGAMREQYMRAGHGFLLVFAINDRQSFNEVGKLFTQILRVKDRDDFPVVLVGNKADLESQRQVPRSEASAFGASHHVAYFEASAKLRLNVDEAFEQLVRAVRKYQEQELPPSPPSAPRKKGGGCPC
TC21 (Homo sapiens), sequence (P62070 2-201): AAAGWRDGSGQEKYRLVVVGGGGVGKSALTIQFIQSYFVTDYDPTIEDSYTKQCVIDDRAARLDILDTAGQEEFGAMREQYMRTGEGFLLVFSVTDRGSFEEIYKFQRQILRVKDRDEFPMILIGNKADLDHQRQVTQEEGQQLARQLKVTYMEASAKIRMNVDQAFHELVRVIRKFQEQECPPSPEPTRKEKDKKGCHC
Afadin RA1 with N-terminal α-helix, sequence (P55196 1-141): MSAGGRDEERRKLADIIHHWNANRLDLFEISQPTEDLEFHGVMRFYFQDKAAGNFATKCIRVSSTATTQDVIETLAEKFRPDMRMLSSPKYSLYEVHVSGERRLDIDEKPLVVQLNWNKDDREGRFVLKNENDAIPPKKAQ
Rap2 (Homo sapiens), sequence (P10114 1-180): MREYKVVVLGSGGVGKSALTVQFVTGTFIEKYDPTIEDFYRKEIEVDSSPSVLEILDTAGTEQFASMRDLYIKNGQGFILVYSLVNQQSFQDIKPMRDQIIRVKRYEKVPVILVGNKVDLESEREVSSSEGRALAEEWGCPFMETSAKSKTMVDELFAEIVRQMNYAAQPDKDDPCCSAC

Kd (R-Ras (Homo sapiens)): 16 µM
Kd (M-Ras (Homo sapiens)): 2.5 µM
Kd (H-Ras (Homo sapiens) [1]): 2.5 µM
Kd (TC21 (Homo sapiens)): 16 µM
Kd (Rap1 (Homo sapiens)): 0.24 µM
Kd (Rap2 (Homo sapiens)): 2.5 µM
Substance: Afadin RA1 (from UniProt P55196)

Kd (Ras (Homo sapiens) [2]): 4.1 µM
Substance: Afadin RA1 with N-terminal α-helix (from UniProt P55196)

Kd (Ras (Homo sapiens) [3]): 17.8 µM
Substance: Afadin RA1 without N-terminal α-helix (from UniProt P55196)

Kd (H-Ras (Homo sapiens) [4]): 30 µM
Substance: Afadin RA2 (from UniProt P55196)
